Measurements as given in patent US20030166162A1.

Target: thrombin
Test: cell-based or functional assay

GST (Glutathion-S-transferase) expressed from pGEX-4T-3, sequence (P08515 whole entry): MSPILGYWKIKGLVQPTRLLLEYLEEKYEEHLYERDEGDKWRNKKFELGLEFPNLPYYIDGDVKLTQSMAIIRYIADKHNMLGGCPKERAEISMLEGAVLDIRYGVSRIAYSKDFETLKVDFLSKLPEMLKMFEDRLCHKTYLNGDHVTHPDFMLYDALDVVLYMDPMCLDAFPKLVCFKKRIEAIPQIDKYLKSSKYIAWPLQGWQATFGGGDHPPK

thrombin activity, delta Abs (405 nm)/2 min, Test 1; sample C: pH 2.0 + 2 ug chymosin (Abs (405 nm)/2 min)	thrombin activity, delta Abs (405 nm)/2 min, Test 2; sample C: pH 2.0 + 2 ug chymosin (Abs (405 nm)/2 min)	Substance	thrombin activity, delta Abs (405 nm)/2 min, Test 1; sample E: pH 4.5 + 2 ug chymosin (Abs (405 nm)/2 min)	thrombin activity, delta Abs (405 nm)/2 min, Test 2; sample E: pH 4.5 + 2 ug chymosin (Abs (405 nm)/2 min)	other results
0.063	0.073	GST (Glutathion-S-transferase) expressed from pGEX-4T-3 (from UniProt P08515 1-218)	0.087	0.087	thrombin activity, delta Abs (405 nm)/2 min, Test 1; sample A: supernatant + water (Abs (405 nm)/2 min): 0.087; thrombin activity, delta Abs (405 nm)/2 min, Test 1; sample B: pH 2.0 (Abs (405 nm)/2 min): 0.082; thrombin activity, delta Abs (405 nm)/2 min, Test 1; sample D: pH 4.5 (Abs (405 nm)/2 min): 0.087; thrombin activity, delta Abs (405 nm)/2 min, Test 2; sample A: supernatant + water (Abs (405 nm)/2 min): 0.082; thrombin activity, delta Abs (405 nm)/2 min, Test 2; sample B: pH 2.0 (Abs (405 nm)/2 min): 0.073; thrombin activity, delta Abs (405 nm)/2 min, Test 2; sample D: pH 4.5 (Abs (405 nm)/2 min): 0.086
		Hirudin 2 ug (positive control of Table 1)			thrombin activity, delta Abs (405 nm)/2 min, Test 1; Hirudin 2 ug (Abs (405 nm)/2 min): 0.0001; thrombin activity, delta Abs (405 nm)/2 min, Test 2; Hirudin 2 ug (Abs (405 nm)/2 min): 0.0001
0.066	0.07	cleavage product of GST-Pro-Hirudin treated at pH 2.0 with 2 ug chymosin			
		hirudin released from GST-Pro-Hirudin by treatment at pH 4.5 with 2 ug chymosin (from UniProt P01050 1-65)	0.0002	0.0001	
